Results on 1 molecule are retold here after article PMC4429956.

For test [1], the target named is fluorescent H3K4me3 peptide. Put plainly: fluorescence polarisation; increasing concentrations of TAF3 PHD finger with fluorescent H3K4me3 peptide, no PI; apparent KD. Background: In fluorescence polarisation assays a small probe gives low polarisation when free and higher when bound to something large.
For test [2], the target named is fluorescent H3K4me3 peptide. Put plainly: fluorescence polarisation; increasing concentrations of TAF3 PHD finger with fluorescent H3K4me3 peptide, with a 5-fold molar excess of PI5P; apparent KD.

B1: GST-TAF3 PHD finger, wild type (domain or fragment)
chain: IWICPGCNKPDDGSPMIGCDDCDDWYHWPCVGIMTAPPEEMQWFCPKCANKKKDKKHKKRKHRAH
modifications: not checked
With B1, the Kd in test [1] came out at 1 µM; in test [2], 3.5 µM.
